Key:
Cathepsin B = Cathepsin B (Homo sapiens, UniProt P07858); test: Cathepsin B (CatB) cleavage assay; type: biochemical; conditions: BTCs
Procedure: 15 μL of test compound solution (2 mM in DMSO) was added to the incubation plate in duplicate. 30 μL of Cathepsin B stock solution (16 μM) was pre-activated with 1500 μL activation buffer for 10 min at room temperature. The Cathepsin B solution was diluted in 13.17 mL water, then 735 μL activatived enzyme mixture was added to the incubation plate. The mixture was incubated at 37° C. in a waterbath. […] The samples were mixed and centrifuged at 4000 rpm for 20 min. 50 μL of supernatant was taken into a new plate containing 150 μL ultra-pure water and the samples mixed thoroughly before submitting to LC-MS/MS analysis.

[1] = rat
[2] = Plasma stability analysis, mouse plasma; conditions: plasma, BTCs
Procedure: Pooled frozen plasma was thawed in a water bath at 37° C. Plasma was centrifuged at 4000 rpm for 5 min and the clots were removed if any. The pH will be adjusted to 7.4±0.1 if required. 1 mM stock solution was prepared with DMSO. Propantheline (positive control) was prepared by making a 100 μM working solution by diluting 5 μL of the stock solution (10 mM) with 495 μL ultra pure water. 100 μM working solutions of test compounds were made up by diluting 10 μL of the stock solution (1 mM) with 90 μL DMSO. 98 μL of blank plasma was spiked with 2 μL of dosing solution (100 μM) to achieve 2 μM of the final concentration in duplicate and samples were incubated at 37° C. in a water bath. […] An aliquot of supernatant (150 μL) was transferred from each well before submitting for LC-MS/MS analysis.
The % remaining test compound after incubation in plasma was calculated using following equation: Remaining=100×(PAR at appointed incubation time/PAR at T0 time)
where PAR is the peak area ratio of analyte versus internal standard (IS).
The half-life (T½) was calculated from a log linear plot of concentration versus time.

in vivo [3] = conditions: rat, plasma
in vitro [4] = conditions: rat, plasma
in vitro [5] = conditions: mouse, plasma
in vitro [6] = conditions: human, plasma
in vitro [7] = conditions: human, plasma, pH 7.4
Procedure: (§1) Pooled frozen plasma was thawed in a water bath at 37° C. Plasma was centrifuged at 4000 rpm for 5 min and the clots were removed if any. The pH will be adjusted to 7.4±0.1 if required. 1 mM stock solution was prepared with DMSO. Propantheline (positive control) was prepared by making a 100 μM working solution by diluting 5 μL of the stock solution (10 mM) with 495 μL ultra pure water. 100 μM working solutions of test compounds were made up by diluting 10 μL of the stock solution (1 mM) with 90 μL DMSO. 98 μL of blank plasma was spiked with 2 μL of dosing solution (100 μM) to achieve 2 μM of the final concentration in duplicate and samples were incubated at 37° C. in a water bath. At each time point (0, 1, 2, 4, 6 and 24 hr), 400 μL of 200 ng/mL tolbutamide and labetalol in 100% MeOH was added and mixed thoroughly to precipitate proteins. Sample plates were centrifuged at 4,000 rpm for 15 min. An aliquot of supernatant (150 μL) was transferred from each well before submitting for LC-MS/MS analysis.
(§2) The appointed incubation time points are T0 (0 hr), Tn (n=0, 1, 2, 4, 6, 24 hr). The half-life (T½) was calculated from a log linear plot of concentration versus time.
(§3) When the % remaining value at the maximal incubation time, which was 24 hr in this study, was higher than 75%, it is considered to be within the acceptable experimental variation.

in vitro [8] = conditions: cynomolgus monkey, plasma
in vitro [9] = conditions: rat, plasma, pH 7.4
Procedure: as §1, §2, §3

in vivo [10] = conditions: male, CD-1, mouse, plasma, intravenous
Procedure: Male CD-1 mice were dosed with each Bicycle Conjugate formulated in 25 mM histidine HCl, 10% sucrose pH 7 via tail vein injection. Serial bleeding (about 80 μL blood/time point) was performed via submadibular or saphenous vein at each time point. All blood samples were immediately transferred into prechilled microcentrifuge tubes containing 2 μL K2-EDTA (0.5M) as anti-coagulant and placed on wet ice. Blood samples were immediately processed for plasma by centrifugation at approximately 4° C., 3000 g. The precipitant including internal standard (350 μL) was immediately added into the 35 μL plasma sample, mixed well and centrifuged at 3220 g, 4° C. for 15 minutes. The supernatant was transferred into pre-labeled polypropylene microcentrifuge tubes, and then quick-frozen over dry ice. The samples were stored at 70° C. or below as needed until analysis. Supernatant samples were mixed with 50 μL water, vortexed well and centrifuged at 3220 g, 4° C. for 15 minutes. A sample of the supernatant was injected for LC-MS/MS analysis using an Acquity UPLC with AB Sciex 6500+ Triple Quad MS in positive ion mode to determine the concentrations of Bicycle Conjugate and released payload. Plasma concentration versus time data were analyzed by non-compartmental approaches using the Phoenix WinNonlin 6.3 software program. C0, Cl, Vdss, T1/2, AUC(0-inf), MRT(0-last), MRT(0-inf) nd graphs of plasma concentration versus time profile were reported.

## CC[C@H](C)[C@@H]([C@@H](CC(=O)N1CCC[C@H]1[C@H](OC)[C@@H](C)C(=O)N[C@H](C)[C@@H](O)c1ccccc1)OC)N(C)C(=O)[C@@H](NC(=O)[C@H](C(C)C)N(C)C(=O)OCc1ccc(NC(=O)[C@H](CCCNC(N)=O)NC(=O)[C@@H](NC(=O)Cn2cc(CCC(=O)NCCC(=O)N(C)CC(=O)N(C)CC(=O)N(C)CC(=O)N(C)CC(=O)N(C)CC(=O)N(C)CC(=O)N(C)CC(=O)N(C)CC(=O)N(C)CC(=O)N(C)CC(=O)N[C@@H](C)C(=O)N[C@H]3CN(C)Cc4cc5cc(c4)CN(C)C[C@@H](C(N)=O)NC(=O)[C@H](C(C)(C)C)NC(=O)[C@H](CC(=O)O)NC(=O)[C@H](Cc4ccc(O)cc4)NC(=O)[C@H](Cc4ccccc4)NC(=O)[C@H](CC(=O)O)NC(=O)[C@H](CCC(=O)O)NC(=O)[C@H](CSC5)NC(=O)[C@@H](C)NC(=O)[C@H](Cc4cccc5ccccc45)NC(=O)[C@H](CCC(=O)O)NC(=O)[C@H](CC(N)=O)NC(=O)[C@@H](C)NC3=O)nn2)C(C)C)cc1)C(C)C [BCY7761, MMAE-PAB-(Cit-Val)-BCY3900, reference compound]
Cathepsin B; 0 h
  % Parent remaining after incubation with CatB, 0 h: 100%
Cathepsin B; 1 h
  % Parent remaining after incubation with CatB, 1 h: 33.687%
Cathepsin B; 2 h
  % Parent remaining after incubation with CatB, 2 h: 15.1%
Cathepsin B; 4 h
  % Parent remaining after incubation with CatB, 4 h: 4.93%
Cathepsin B; 6 h
  % Parent remaining after incubation with CatB, 6 h: 1.01%
Cathepsin B; 24 h
  % Parent remaining after incubation with CatB, 24 h: 0.462%
Cathepsin B; read-out: CatB t1/2 (converted)
  half-life at 40 μM: 0.9 h
[1]
  AUC ratio: 0.00445
[2]; pH 7.4, Mouse plasma t1/2 (EDTA), EDTA anticoagulant
  half-life at 2 μM: 9.1 h
[2]; pH 7.4, Mouse plasma t1/2 (Herparin), heparin anticoagulant
  half-life at 2 μM: 9.2 h
[2]; pH 7.4, Mouse plasma t1/2 expt 2 (EDTA), EDTA anticoagulant, experiment 2
  half-life at 2 μM: 6.8 h
In vivo [3]
  half-life: 0.49 h
In vitro [4]; PPB (% Unbound), rat (Table 9)
  fraction unbound: 0.11
In vitro [4]; Plasma protein binding (% Unbound) Rat
  fraction unbound: 0.106
In vitro [5]
  fraction unbound: 0.173
In vitro [6]
  fraction unbound: 0.211
In vitro [7]
  half-life at 2 μM: > 57.8 h
In vitro [8]
  fraction unbound: 0.187
In vitro [9]
  half-life at 2 μM: 56.8 h
In vivo [10]
  C0: 24800 ng/mL
  Vd: 0.04 L/kg
  clearance: 1 mL/min/kg
  half-life: 0.48 h

— US12540161B2, “Linkers” (BicycleTx Limited, priority 2020, dated 2026)
